Results: patent US20030108957A1

Tests used:
GroEL (E. coli) = GroEL (E. coli) (UniProt P0A6F5)
[1] = biological target: guanyl-nucleotide binding protein Ras (21 kDa); assay: competition fluorescence polarization: 4 µM Ras (negative control) preincubated with 4 µM unlabeled pyrrhocoricin, then 1 nM fluorescein-K-pyrrhocoricin; used as the correction for the DnaK and GroEL readings
[2] = biological target: guanyl-nucleotide binding protein Ras (21 kDa); assay: competition fluorescence polarization: 4 µM Ras (negative control) preincubated with 8 µM unlabeled pyrrhocoricin, then 1 nM fluorescein-K-pyrrhocoricin; used as the correction for the DnaK and GroEL readings

Substance	millipolarization over the background (GroEL (E. coli)) [%]	decrease of the millipolarization reading after preincubation (millipolarization units) [1]	decrease of the millipolarization reading after preincubation (millipolarization units) [2]
fluorescein-labeled β-tubulin fragment aa434-445 (peptide)	50		
pyrrhocoricin (unlabeled, all L-amino acids, without sugar) (peptide)		16	27
